To fix the notation:
B1: CPEB3 Ribozyme (parent)
chain: GGGGGCCACAGCAGAAGCGUUCACGUCGCGGCCCCUGUCAGAUUCUGGUGAAUCUGCGAAUUCUGCUGU

In this data set the parent is B1. Kind of data set: self-cleavage, relative activity (ratio to wild type); higher = more cleavage; co-transcriptional.
For the variant GGGGGCCACAUCAGAAGCGUUCACGUCGCGGCCCCUGUCAGAGUCUGGUGAAUCUGCGAAUUCUGCUGU [G11U U43G], the self-cleavage came out at 0.302. On to GGGGGCCACAUCAGAAGCGUUCACGUCGCGGCCCCUGUCAGAAUCUGGUGAAUCUGCGAAUUCUGCUGU [G11U U43A], for which the self-cleavage is 0.392. Take GGGGGCCACAUCAGAAGCGUUCACGUCGCGGCCCCUGUCAGAUUCUGGUGAAUCUGCGAAUUCUGCUGA [G11U U69A]: the self-cleavage was determined as 0.958. As for GGGGGCCACAUCAGAAGCGUUCACGUCGCGGCCCCUGUCAGAUUCUGGUGAAUCUGCGAAUUCUGCUGG [G11U U69G], the self-cleavage came to 0.968. Consider GGGGGCCACAUCAGAAGCGUUCACGUCUCGGCCCCUGUCAGAUUCUGGUGAAUCUGCGAAUUCUGCUGU [G11U G28U], for which the self-cleavage turned out to be 0.192. In the case of GGGGGCCACAUCAGAAGCGUUCACGUCCCGGCCCCUGUCAGAUUCUGGUGAAUCUGCGAAUUCUGCUGU [G11U G28C] it was 0.116. The value for GGGGGCCACAUCAGAAGCGUUCACGUCGCGGCCCCUGUCAGAUACUGGUGAAUCUGCGAAUUCUGCUGU [G11U U44A] was 0.677; that for GGGGGCCACAUCAGAAGCGUUCACGUCGCGGCCCCUGUCAGAUGCUGGUGAAUCUGCGAAUUCUGCUGU [G11U U44G] was 0.734; that for GGGGGCCACAUCAGAAGCGUUCACGUCGCGGCCCCUGUCAGAUCCUGGUGAAUCUGCGAAUUCUGCUGU [G11U U44C] was 0.539.

On to GGGGGCCACAUCAGAAGCGUUCACGUCGCGGCCCCUGUCAGAUUCUGGUGAAUCUGCGAAUUCUGCUCU [G11U G68C], for which the self-cleavage was 0.943. In the case of GGGGGCCACAUCAGAAGCGUUCACGUCGCGGCCCCUGUCAGAUUCUGGUGAAUCUGCGAAUUCUGCUUU [G11U G68U], the self-cleavage was 0.856.

GGGGGCCACAUCAGAAGCGUUCACAUCGCGGCCCCUGUCAGAUUCUGGUGAAUCUGCGAAUUCUGCUGU [G11U G25A]: the self-cleavage came to 0.141.

Regarding GGGGGCCACAUCAGAAGCGUUCACUUCGCGGCCCCUGUCAGAUUCUGGUGAAUCUGCGAAUUCUGCUGU [G11U G25U], the self-cleavage worked out at 0.136.

Consider GGGGGCCACAUCAGAAGCGUACACGUCGCGGCCCCUGUCAGAUUCUGGUGAAUCUGCGAAUUCUGCUGU [G11U U21A], for which the self-cleavage is 0.895.

Turning to GGGGGCCACAUCAGAAGCGUUCACGUCGCGGCCCCUGUCAGAUUCUGGUGAAUCUUCGAAUUCUGCUGU [G11U G56U], the self-cleavage came out at 0.404. Consider GGGGGCCACAUCAGAAGCGUUCACGUCGCGGCCCCUGUCAGAUUCUGGUGAAUCUACGAAUUCUGCUGU [G11U G56A], for which the self-cleavage was found to be 0.701.

Take GGGGGCCACAUCAGAAGCGUUCACGUCGCGGCCCCUGUCAGAUUCUGGUGAAUCUCCGAAUUCUGCUGU [G11U G56C]: the self-cleavage is 0.367. GGGGGCCACAUCAGAAGCGUUCACGUCGCGGCCCCUGUCAGAUUCUGGUGAAUCGGCGAAUUCUGCUGU [G11U U55G]: the self-cleavage stood at 0.225. Take GGGGGCCACAUCAGAAGCGUUCACGUCGCGGCCCCUGUCAGAUUCUAGUGAAUCUGCGAAUUCUGCUGU [G11U G47A]: the self-cleavage is 0.897. Turning to GGGGGCCACAUCAGAAGCGUUCACGUCGCGGCCCCUGUCAGAUUCUCGUGAAUCUGCGAAUUCUGCUGU [G11U G47C], the self-cleavage was 0.954.

On to GGGGGCCACAUCAGAAGCGUUCACGUCGCGGCCCCUGUCAGAUUCUGGUCAAUCUGCGAAUUCUGCUGU [G11U G50C], for which the self-cleavage was 0.797. For the variant GGGGGCCACAUCAGAAGCGUUCACGUCGCGGCCCCUGUCAGAUUCUGGUUAAUCUGCGAAUUCUGCUGU [G11U G50U], the self-cleavage was determined as 0.916. For the variant GGGGGCCACAUCAGAAGCGUUCACGUCGCGGCCCCUGUCAGAUUCUGGUGAAUCUGCGAAUUCUGCAGU [G11U U67A], the self-cleavage worked out at 0.913. The value for GGGGGCCACAUCAGAAGCGUUCACGUCGCGGCCCCUGUCAGAUUCUGGUGAAUCUGCGAAUUCUGCGGU [G11U U67G] was 0.949; that for GGGGGCCACAUCAGAAGCGUUCACGUCGCGGCCCCUGUCAGAUUCUGGUGAAUCUGCGAAUUCUGCCGU [G11U U67C] was 0.96; that for GGGGGCCACAUCAGAAGCGUUCACGUCGCGGCCCCUGUCAGAUUCUGGUGAAUCUGCGAAUCCUGCUGU [G11U U62C] was 0.365. Consider GGGGGCCACAUCAGAAGCGUUCACGUCGCGGCCCCUGUCAGAUUCUGGUGAAUCUGCGAAUACUGCUGU [G11U U62A], for which the self-cleavage came to 0.38. In the case of GGGGGCCACAUCAGAAGCGUUCACGUCGCGGCCCCUGUCAGAUUCUGGUGAAUCUGCGAAUGCUGCUGU [G11U U62G] it was 0.381; in that of GGGGGCCACAUCAGAAGCGUUCACGUCGCGGCCCCUGUCAUAUUCUGGUGAAUCUGCGAAUUCUGCUGU [G11U G41U], 0.359. GGGGGCCACAUCAGAAGCGUUCACGUCGCGGCCCCUGUCAAAUUCUGGUGAAUCUGCGAAUUCUGCUGU [G11U G41A]: the self-cleavage was found to be 0.217. In the case of GGGGGCCACAGAAGAAGCGUUCUCGUCGCGGCCCCUGUCAGAUUCUGGUGAAUCUGCGAAUUCUGCUGU [C12A A23U], the self-cleavage worked out at 0.742. With GGGGGCCACAGAAGAAGCGUUCGCGUCGCGGCCCCUGUCAGAUUCUGGUGAAUCUGCGAAUUCUGCUGU [C12A A23G], the self-cleavage worked out at 0.42. In the case of GGGGGCCACAUCAUAAGCGUUCACGUCGCGGCCCCUGUCAGAUUCUGGUGAAUCUGCGAAUUCUGCUGU [G11U G14U] it was 0.144; in that of GGGGGCCACAGACGAAGCGUUCACGUCGCGGCCCCUGUCAGAUUCUGGUGAAUCUGCGAAUUCUGCUGU [C12A A13C], 0.199. On to GGGGGCCACAGAGGAAGCGUUCACGUCGCGGCCCCUGUCAGAUUCUGGUGAAUCUGCGAAUUCUGCUGU [C12A A13G], for which the self-cleavage came to 0.735. For GGGGGCCACAUCAGAAGCGUUCACGUCGCGGCCCCUGUCAGAUUCUGGUGAAUCUGCGAAUUCUCCUGU [G11U G65C], the self-cleavage is 0.574. On to GGGGGCCACAUCAGAAGCGUUCACGUCGCGGCCCCUGUCAGAUUCUGGUGAAUCUGCGAAUUCUUCUGU [G11U G65U], for which the self-cleavage is 0.68.

In the case of GGGGGCCACAUCAGAAGCGUUCACGUCGCGGCCCCUGUCAGAUUCUGGUGAAUCUGCGAAGUCUGCUGU [G11U U61G], the self-cleavage worked out at 0.348.

As for GGGGGCCACAUCAGAAGCGUUCACGUCGCGGCCCCUGUCAGAUUCUGGUGAAUCUGCGAAAUCUGCUGU [G11U U61A], the self-cleavage is 0.412.

Values taken from the RNAGym collection of RNA variant scans (doi:10.7554/elife.80360).
